test: yeast display, Sf9 membrane polyspecificity reagent, FACS + sequencing; frameworks hold sequencing errors
In short: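 A nanobody's polyreactivity label depends on the gate it was sorted from. Yeast display cells were stained with 10% biotinylated, detergent-solubilized Sf9 membrane reagent for 1 hour at 4 °C, enriched on streptavidin microbeads and sorted by FACS. The low and high (top ~1%) gates were set on anti-HA fluorescence for expression and streptavidin fluorescence for reagent binding.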

Sequence	polyreactivity (PSR sort gate)
QLQLVESGGGLVQAGGSLRLSCAASGSIFDQNAMGWYRHAPGKERELVAAISKSGGSTYYADSVKGRFTISRDNAKNTVYLQLNSLKPEDTAVYYCAARYHYPGNWYNYWGQGTQVTVSS	low polyreactivity
QVQLVESGGGLVQAGGSLRLSCAASGSIFEPNAMGWYRQAPGKERELVASITSGGTTYADSVKGRFTISRDNAKNTVYLQMNSLKPEDTAVYYCNARVKAFFDPSQYLYGHDYWGQGTQVTVSS	low polyreactivity
QVQLVESGGGLVQAGGSLRLSCAASGITFFRNARGWYRQAPGKEREFVATISRSSGSTYADSVKGRFTISRDNAKNTVYLQMNSLKPEDTAVYYCAAERTYSDSLSFDHWGQGTQVTVSS	low polyreactivity
QVQLVESGGGLVQAGGSLRLSSAASGLTFTYYVMGWYRQAPGKERELVAAITVSGGSTYYADSVKGRFTISRDNAKNTVYLQMNSLKPEDTAVYYCAADAYSGYSDYYWGQGTQVTVSS	low polyreactivity
QVQLVETGGGLVQARGSLRLSCAASGRTLPDNAMGWSRQAPGNESELVAAITTSGGSTYYADSVMGRFTISRDNAQNTVYLQLNSLKPEDTAVYYCAADIWQYSLIANYHPYDYWGQGTQVTVSS	low polyreactivity
QVQLVESGGGLVQAGGSLRLSCAASGSTFPAYAMGWYRQAPGKERELVAAINTSGGNTYYADSVKGRFTISRDNAKNTVYLQMNSLKPEDTAVYYCAADYKARYSEKFDYWGQGTQVTVSS	low polyreactivity
QVQLVESGGGLVQAGGSLRLSCAASGIIIVRYAMGWYRQAPGKERELVAAISRRGGSTYYADSVKGRFTISRDNAKNTVSLQMNSLKPEDTAVYYCAALLGDITGYDYWGQGTQVTVSS	high polyreactivity
QVQLVESGGGLVQAGGSLRLSCAASGIIFDDNTMGWYRQAPGKERELVAAISSGGRTYYADSVKGRFTISRDNAKYTVYLQMNSLKPEDTAVYYFNVDIYTYIASNGELDYWGQGTQVTVSS	low polyreactivity
QVQLVESGGGLVQAGGSLRLSCAASGRTSWANVMGWYRQAPGKERELVAAISSSGDSTYYADSVKGRFTISRDNAKNTVYLQMNSLKPEDTAVDYCAAGYELSDLAILDYRYDYWGQGSQVTVSS	low polyreactivity
QVQLVESGGGLVQAGGSLRLSCAASGSIFYAYVMGWYRQAPGKERELVAAIDIGGGTYADSVKGRFTISRDNAKNTVYLQMNMLKPEDTAVYYCAKAGYFSRGVYVYYLDEYDYWGQGSQVTVSS	high polyreactivity
QVQLVESGGGLVQAGGRLRLTCAASARTIVLNPMGWYRQAPGKERELVAAISSGGSTNYADSVKGRFTISRDNAKNTVYLQMNSLNPEDTAVYYCAGQDVNLYSAYYYWGQGTQVTVSS	low polyreactivity
QVQLVESGGGLVQAGGSLRLSCAASGRIFTQYAMGWYRQAPGKERELVAAINASDGSTYADSVKGRFTISRDNAKNTVYLQMNSLKPEDSAVYFCYVTGGPYDFTRWSEFDHWGQGTQVTVSS	low polyreactivity
QVQLVESGRGLVQAGGSLRLSCAASGRTFPVYAMGWYRQAPGKERELVAAITYSGGSTSYADSVKGRFTISRDNAKNTVYLQMNSLKPEDTAVYYCAADRAYYSRGIGSVGYYYWGQGTQVTVSS	low polyreactivity
QVQLVESGGGLVQAGGSLRLSCAASGRTFMRNAMGLYRQAPGKERELVAAISRSGGSTYYADSVKGRFTISRDNAKNTVYLQMNSLKPEDTAVYYCAADDYGGYYYWGQGTQVTVSS	high polyreactivity
QVQLVESGGGLVQAGGSLRLSCAASGSTFSFYDMGWSRQAPGKEPELVAAITGSGGTTYYADSVKVRFTISRDNAKNTVYFQMNILKPEDTAFYYCAADSLESYPDYEYDFWGQGTQVTVSS	low polyreactivity
QDQLVESGGGLVQAGGSLRLSCAASGSIFPNYAMGWYRQAPGKERELVAAISSSGGRTYYADSVKGRFTISRDNAKNTVYLQMNSLKPEDTAVYYCAADTYTSAQHEKYDYWGQGTQVTVSS	low polyreactivity
QVQLVESGGGLVQAGGSLRLSCAAYGITFAYYVMGWYRQAPGKERELVAAISRSGSTYYADSVKGRFTISRDNAKITVYLQMNCLKPEDTAVYYCAVLYIRWYTYEYWGQGTQVTVSS	high polyreactivity
QVQLVESGGGLVQAGGSLRLSCAASGNILARGYAMGWYRQAPGKERELVAAITFNDGSTYYADSVKGRFTISRDNAKNTVYLQMNSLKPEDTAVYYCAADFSYVYYLYDYWGQGTQVTVSS	low polyreactivity
QVQLVESGGGLVQAGGSLRLSCAASGITFWHNTMGWYRQAPGKERELVAAISWTGGRTYYADSVKGRFTISRDNAKNSVYLQMNSLKPEDTPVYYCAADFSWTPSGNYDSWGQGTQVTVSS	low polyreactivity
QVQLVESGGGLVQAGGSLRLSCAASGSTFSGYAMGWYRQAPGKERELVAGIRLDGSRTYYADSVKGRFTISRDNAKNTVYLQMNSLKPEDTAVYYCAAPSGTYWTRREYWGQGSQVTVSS	low polyreactivity
QVQLVESGGGLVQAGGSLRLSCAASGRTFGVNAMGWYRQAPGKERELVAAITKDSGSTNYADSVKGRFTISRDNAKNTVYLQMNSLKPEDTAVYYCAARVWVRGYYWGQGTQVTVSS	low polyreactivity
QVPLVESGGGLVQAAGSLRLSCAASGRISLGYAMGWYRQAPGKERELVAAISRGGTNTYYADSVKGRFTISRDNAKNTVYLQMNSLKPEDTAVYYCAARYSWGQGTQVTVSS	high polyreactivity
QVQLVESGGGLVQAGGSLRLSCAASGRIFYAYAMGWYRQAPGKERELVAAISSGGSTKYADSVKGRFTISRDNAKNTVYLQMNSLKPEDTAVYYCNADATAQSFGTLFDYWGQGTQVTVSS	low polyreactivity
QVQLVESGGGLVQAGGSLRLSCAASGRIFYPYAMGWYRQAPGKERELVAAISRSGGSTYYADSVKGRFTISRDNAKNTVYLQMNSLKPEDTAVYYCAKVTSSGDAVLTQIPYGYDYWGQGTQVTVSS	low polyreactivity
QVQLVESGGGLVQAGGSLRLSCAASGSIFGINAMGWYRQAPGKERELVAAISYSGGSTYYADTVKGRFTISRDNAKNTVYLQMNSLKPEDTAVYYCARRGKHVAGRYYYWGQVTQVTVSS	high polyreactivity
QVQLVESGGGLVQAGGSLRLSCAASGRIFGRNAMGWYRQAPGKEREFVAAISRSGASTYYADSVKGRFTISRDNAKNTVYLQMNSLKPEDTAVYYCARTTRQSSAYTYSDEYDYWGQGTQVTVSS	high polyreactivity
QVQLVDSGGGLVQAGGSLRLSCDATGRIFRLYAMGWYRQAPGKERELVAAISWRGSSTNYADSVKGRFTISRDNAKNTVYLQRNSLKPEDTAVYYCAAPGRGGYYYWGQGTQVTVSS	high polyreactivity
QVQLVESGGGLVQAGGSLRLICAASGRIFVYYAMGWYRQAPGKERELVAAISSGGSTYYADSVKGRFTISRDNAKNTVYLQMNSLKPEDTAVYYCAADPQRGRRIGYYWGQGTQVTVSS	low polyreactivity
QVQLVESGGGLVQAGGSLRLSCAASGRTFGTNAMGWYRQAPGKERELVAAINQNGGSTYYADSVKGRFTISRDNAKNTVYLQMNSLKPEDTAVYYCAARSLDRYYHNANYYPYYYWGQGTQVTVSS	high polyreactivity
QVQLVESGGGLVQAGGSLRLSCAASGRIFSWNAMGWYRQAPGKERELVAAITIGGGTYYADSVKGRFTISRDNAKNTVYLQMNSLKPEDTAVYYCNAYRRKLWYPTGMYWGQGTQVTVSS	high polyreactivity

Reference: the nanobody polyreactivity screen of Harvey et al. (2022)
